Laboratory results taken from PMC10404681, “Intrinsic catalytic properties of histone H3 lysine-9 methyltransferases preserve monomethylation levels under low S-adenosylmethionine” (The Journal of Biological Chemistry, 2023).

Tests used:
[1] = substrate: C[S+](CC[C@H](N)C(=O)[O-])C[C@H]1O[C@@H](n2cnc3c(N)ncnc32)[C@H](O)[C@@H]1O; experiment: Radiometric EZ-tip methyltransferase assay, steady-state kinetics, EHMT2; assay type: biochemical, H. sapiens; details: other: SAM varied 0.1–100 μM, EHMT2 25 nM, pH 7.9, 30 °C, 20 min, n = 3, SD
Text: (§1) HMT amino acids included in expression plasmids are as follows: EHMT1 = 982 to 1266; EHMT2 = 913 to 1193; SUV39H1 = full length with N-terminal maltose-binding protein; SUV39H2 = 162 to 410.
(§2) Michaelis-Menten saturation curves were generated under steady-state conditions with the non-titrated component concentration being present at ≥5× KM specific to each enzyme. 1 × 10^5 CPM values were provided by [methyl-^3H] SAM in each reaction. Reaction times and enzyme concentrations were optimized for each HMT to ensure substrate turnover remained below 20%. 50 μM H3 peptide was combined with varying SAM concentrations up to 100 μM and either EHMT1 (25 nM), EHMT2 (25 nM), SUV39H1 (100 nM), or SUV39H2 (25 nM) in histone methyltransferase (HMT) activity buffer (50 mM HEPES pH 7.9, 0.5 mM DTT, 0.1 mM AEBSF, 2 mM MgCl2, 0.01% v/v Triton X-100) with a final volume of 20 μl. Enzyme concentrations are calculated for the monomeric form. Reactions were incubated at 30 °C for 20 min before quenching with TFA for a final concentration of 2% v/v TFA. Then, the reactions were cleaned using StageTips (i.e., two Attract SPE disks (Affinisep) in a pipette tip) with 200 μl acidified water (0.5% v/v formic acid) and eluted with 100 μl elution buffer (80% v/v acetonitrile, 0.5% v/v formic acid). The eluates were added to 2 ml of Ultima Gold LSC Cocktail (Sigma-Aldrich) and counted on a scintillation counter (PerkinElmer). All CPM values were corrected for decreased StageTip capacity when peptide concentrations exceeded 10 μM.
(§3) CPM values were converted to rates of product formation (μM/min) and used to generate Michaelis-Menten kinetic constants via GraphPad Prism v9.5.0 via the following equation: Y = Et∗kcat∗X/(KM + X). Variable definitions are as follows: Y = rate of product formation/enzyme velocity; X = substrate concentration; Et = concentration of enzyme in reaction.

[2] = substrate: C[S+](CC[C@H](N)C(=O)[O-])C[C@H]1O[C@@H](n2cnc3c(N)ncnc32)[C@H](O)[C@@H]1O; experiment: Radiometric EZ-tip methyltransferase assay, steady-state kinetics, EHMT1; assay type: biochemical, H. sapiens; details: other: SAM varied 0.1–100 μM, EHMT1 25 nM, pH 7.9, 30 °C, 20 min, n = 3, SD
Text: as §1, §2, §3

[3] = substrate: C[S+](CC[C@H](N)C(=O)[O-])C[C@H]1O[C@@H](n2cnc3c(N)ncnc32)[C@H](O)[C@@H]1O; experiment: Radiometric EZ-tip methyltransferase assay, steady-state kinetics, SUV39H2; assay type: biochemical, H. sapiens; details: other: SAM varied 0.1–100 μM, SUV39H2 25 nM, pH 7.9, 30 °C, 20 min, n = 3, SD
Text: as §1, §2, §3

[4] = substrate: C[S+](CC[C@H](N)C(=O)[O-])C[C@H]1O[C@@H](n2cnc3c(N)ncnc32)[C@H](O)[C@@H]1O; experiment: Radiometric EZ-tip methyltransferase assay, steady-state kinetics, SUV39H1; assay type: biochemical; details: other: SAM varied 0.1–100 μM, SUV39H1 100 nM, pH 7.9, 30 °C, 20 min, n = 3, SD
Text: as §1, §2, §3

[5] = fixed H3K9me1 peptide H3(1–17) 50 μM
[6] = fixed H3K9me2 peptide H3(1–17) 50 μM
[7] = fixed H3K9un peptide H3(1–17) 50 μM

B1: EHMT2 catalytic domain (Homo sapiens) (protein)
chain: NRAIRTEKIICRDVARGYENVPIPCVNGVDGEPCPEDYKYISENCETSTMNIDRNITHLQHCTCVDDCSSSNCLCGQLSIRCWYDKDGRLLQEFNKIEPPLIFECNQACSCWRNCKNRVVQSGIKVRLQLYRTAKMGWGVRALQTIPQGTFICEYVGELISDAEADVREDDSYLFDLDNKDGEVYCIDARYYGNISRFINHLCDPNIIPVRVFMLHQDLRFPRIAFFSSRDIRTGEELGFDYGDRFWDIKSKYFTCQCGSEKCKHSAEAIALEQSRLARLD
notes: EHMT2 = 913 to 1193; made in house; host or cells: Rosetta E. coli (plasmid from the laboratory of Peter W. Lewis)
[1]; [5]
  Km: 16.80 ± 2.69 µM
  kcat: 0.0358 ± 0.00383 s⁻¹
  kcat/Km: 2170 ± 167 M⁻¹ s⁻¹
[1]; [6]
  Km: 6.10 ± 1.0 µM
  kcat: 0.0175 ± 0.00117 s⁻¹
  kcat/Km: 2830 ± 500 M⁻¹ s⁻¹
[1]; [7]
  Km: 19.21 ± 2.00 µM
  kcat: 0.127 ± 0.00183 s⁻¹
  kcat/Km: 6670 ± 667 M⁻¹ s⁻¹

B2: EHMT1 catalytic domain (Homo sapiens) (protein)
chain: NSQVWSALQMSKALQDSAPDRPSPVERIVSRDIARGYERIPIPCVNAVDSEPCPSNYKYVSQNCVTSPMNIDRNITHLQYCVCIDDCSSSNCMCGQLSMRCWYDKDGRLLPEFNMAEPPLIFECNHACSCWRNCRNRVVQNGLRARLQLYRTRDMGWGVRSLQDIPPGTFVCEYVGELISDSEADVREEDSYLFDLDNKDGEVYCIDARFYGNVSRFINHHCEPNLVPVRVFMAHQDLRFPRIAFFSTRLIEAGEQLGFDYGERFWDIKGKLFSCRCGSPKCRHS
notes: EHMT1 = 982 to 1266; host or cells: Rosetta E. coli
[2]; [5]
  Km: 6.84 ± 1.81 µM
  kcat: 0.0335 ± 0.0025 s⁻¹
  kcat/Km: 5000 ± 833 M⁻¹ s⁻¹
[2]; [6]
  Km: 2.21 ± 0.65 µM
  kcat: 0.0112 ± 0.000333 s⁻¹
  kcat/Km: 5330 ± 1330 M⁻¹ s⁻¹
[2]; [7]
  Km: 13.51 ± 4.95 µM
  kcat: 0.211 ± 0.0108 s⁻¹
  kcat/Km: 16800 ± 4500 M⁻¹ s⁻¹

B3: SUV39H2 catalytic domain (Homo sapiens) (protein)
chain: LEGPPSDFYYINEYKPAPGISLVNEATFGCSCTDCFFQKCCPAEAGVLLAYNKNQQIKIPPGTPIYECNSRCQCGPDCPNRIVQKGTQYSLCIFRTSNGRGWGVKTLVKIKRMSFVMEYVGEVITSEEAERRGQFYDNKGITYLFDLDYESDEFTVDAARYGNVSHFVNHSCDPNLQVFNVFIDNLDTRLPRIALFSTRTINAGEELTFDYQMKGSGDISSDSIDHSPAKKRVRTVCKCGAVTCRGYLN
notes: host or cells: Rosetta E. coli
[3]; [5]
  Km: 9.85 ± 1.21 µM
  kcat: 0.059 ± 0.00383 s⁻¹
  kcat/Km: 6000 ± 500 M⁻¹ s⁻¹
[3]; [6]
  Km: 8.18 ± 3.14 µM
  kcat: 0.0703 ± 0.00583 s⁻¹
  kcat/Km: 9170 ± 2500 M⁻¹ s⁻¹
[3]; [7]
  Km: 4.70 ± 0.69 µM
  kcat: 0.0668 ± 0.00567 s⁻¹
  kcat/Km: 14300 ± 1330 M⁻¹ s⁻¹

B4: SUV39H1 (Homo sapiens) (protein)
chain: MAENLKGCSVCCKSSWNQLQDLCRLAKLSCPALGISKRNLYDFEVEYLCDYKKIREQEYYLVKWRGYPDSESTWEPRQNLKCVRILKQFHKDLERELLRRHHRSKTPRHLDPSLANYLVQKAKQRRALRRWEQELNAKRSHLGRITVENEVDLDGPPRAFVYINEYRVGEGITLNQVAVGCECQDCLWAPTGGCCPGASLHKFAYNDQGQVRLRAGLPIYECNSRCRCGYDCPNRVVQKGIRYDLCIFRTDDGRGWGVRTLEKIRKNSFVMEYVGEIITSEEAERRGQIYDRQGATYLFDLDYVEDVYTVDAAYYGNISHFVNHSCDPNLQVYNVFIDNLDERLPRIAFFATRTIRAGEELTFDYNMQVDPVDMESTRMDSNFGLAGLPGSPKKRVRIECKCGTESCRKYLF
notes: made in house; host or cells: Rosetta E. coli (plasmid generated for this study)
[4]; [5]
  Km: 11.78 ± 3.85 µM
  kcat: 0.005 ± 0.000833 s⁻¹
  kcat/Km: 500 ± 167 M⁻¹ s⁻¹
[4]; [6]
  Km: 3.60 ± 1.72 µM
  kcat: 0.0005 ± 0.000167 s⁻¹
  kcat/Km: 167 ± 50 M⁻¹ s⁻¹
[4]; [7]
  Km: 4.52 ± 0.49 µM
  kcat: 0.00717 ± 0.000667 s⁻¹
  kcat/Km: 1670 ± 333 M⁻¹ s⁻¹
